This note sets out measurements from US20230235058A1 (OXFORD UNIVERSITY INNOVATION, published 2023).

Assay [1] concerns the target T1, soluble cynomolgus macaque BTLA extracellular domain (BTLA K31-R151) (cynomolgus macaque).
T1 construct: also called cynomolgus BTLA; cyno BTLA
T1 chain: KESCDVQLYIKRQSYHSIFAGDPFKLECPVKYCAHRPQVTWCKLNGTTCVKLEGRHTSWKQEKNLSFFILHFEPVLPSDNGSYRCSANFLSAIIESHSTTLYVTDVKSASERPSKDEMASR
The assay can be described thus: SPR Biacore 8K 37C, single cycle kinetics.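 Note: antibody captured on sensor chip, soluble BTLA extracellular domain flowed over at several concentrations in HBS-EP pH 7.4, rates fitted after subtracting isotype-control reference channel and blank.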 A general note: Surface plasmon resonance follows binding to a sensor surface in real time, without labels.
Experimental: (§1) The binding affinity and kinetics of humanised BTLA agonist antibodies to human or cynomolgus BTLA were determined by surface plasmon resonance using the Biacore 8K (GE Healthcare). […] Anti-BTLA antibody was then captured onto the biosensor surface and a negative control antibody (human IgG1k isotype control; Sino Biological cat #HG1K) captured in the reference channel. Various concentrations of monomeric soluble human BTLA extracellular domain (BTLA^K31-R151, produced recombinantly in house) or soluble cynomolgus macaque BTLA extracellular domain (BTLA^K31-R151, produced recombinantly in house) were then injected over the immobilized antibodies in the buffer HBS-EP (GE Healthcare, cat #BR100669), pH 7.4 (HBS-P) at 37° C., in a single cycle kinetics analysis.

The target in assay [2] is T2, monomeric soluble human BTLA extracellular domain (BTLA K31-R151) (human, UniProt Q7Z6A9 31-151).
T2 construct: also called hBTLA; monomeric BTLA
The assay can be described thus: SPR Biacore 8K 37C, single cycle kinetics.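 Note: antibody captured on sensor chip, soluble BTLA extracellular domain flowed over at several concentrations in HBS-EP pH 7.4, rates fitted after subtracting isotype-control reference channel and blank.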
Experimental: as §1

For assay [3], the target named is T1, soluble cynomolgus macaque BTLA …. The assay can be described thus: SPR 37C, mAb captured, BTLA ECD analyte.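 Note: Anti-BTLA mouse antibodies captured on a sensor chip via polyclonal anti-mouse IgG, isotype control antibody in reference channel, rates fitted after reference and blank subtraction to derive Kd.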
Experimental: (§2) Mouse antibody capture kit (GE Healthcare) was used to coat a Series S CMS Sensor Chip (GE Healthcare) with polyclonal anti-mouse IgG. Anti-BTLA antibody was then captured onto the biosensor surface and a negative control antibody (clone Mopc21; Biolegend) captured in the reference channel. […] Association and dissociation rates were fitted using BiaEvaluation Software (GE Healthcare) after reference and blank subtractions, and dissociation constants were calculated (FIG. 1b).
In assay [4] the target is full length human BTLA expressed on cells (human, UniProt Q7Z6A9 31-289). Put plainly: cell-based or functional assay.
The target in assay [5] is chimeric BTLA of humanised-BTLA mice (human extracellular region, murine transmembrane and signaling … (human; mouse, UniProt Q7TSA3 184-306, limits assumed). The assay can be described thus: cell-based or functional assay.
The target in assay [6] is T2, monomeric soluble human BTLA …. Put plainly: SPR 37C, mAb captured, BTLA ECD analyte.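 Note: Anti-BTLA mouse antibodies captured on a sensor chip via polyclonal anti-mouse IgG, isotype control antibody in reference channel, rates fitted after reference and blank subtraction to derive Kd.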
Experimental: as §2
A further assay has as its target T3, human FcγR2A 131H (human, UniProt P12318 34-217).
T3 construct: extracellular domain
T3 sequence (looked up): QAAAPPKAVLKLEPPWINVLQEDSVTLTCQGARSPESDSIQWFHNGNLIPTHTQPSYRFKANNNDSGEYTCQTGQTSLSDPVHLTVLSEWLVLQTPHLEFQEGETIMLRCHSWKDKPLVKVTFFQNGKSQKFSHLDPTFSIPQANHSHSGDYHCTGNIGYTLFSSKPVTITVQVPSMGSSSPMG
The assay can be described thus: SPR 37C, steady state.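 Note: fc variants captured on chip-bound human BTLA ectodomain, recombinant FcγR ectodomains injected as analyte at varied concentrations, double-referenced equilibrium binding fitted to Langmuir model.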

The next assay concerns the target T4, human FcγR2B (human, UniProt P31994 43-217).
T4 construct: extracellular domain; also called hFcγR2B; CD32B
T4 sequence (looked up): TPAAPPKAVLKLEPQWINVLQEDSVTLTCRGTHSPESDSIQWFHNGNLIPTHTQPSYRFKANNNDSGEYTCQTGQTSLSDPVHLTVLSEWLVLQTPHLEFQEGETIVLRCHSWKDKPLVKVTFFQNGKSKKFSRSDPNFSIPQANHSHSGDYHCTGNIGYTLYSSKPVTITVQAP
The assay can be described thus: SPR 37C, steady state.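 Note: fc variants captured on chip-bound human BTLA ectodomain, recombinant FcγR ectodomains injected as analyte at varied concentrations, double-referenced equilibrium binding fitted to Langmuir model.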

In the next assay the target is T5, human FcγR2A 131R (human, UniProt P12318 34-217).
T5 construct: extracellular domain
T5 sequence (looked up): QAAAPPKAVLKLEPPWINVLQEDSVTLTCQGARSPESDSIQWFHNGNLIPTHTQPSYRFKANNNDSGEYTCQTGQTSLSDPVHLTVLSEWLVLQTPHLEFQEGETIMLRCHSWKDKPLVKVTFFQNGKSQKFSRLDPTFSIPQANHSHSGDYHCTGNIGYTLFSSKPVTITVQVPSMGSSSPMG
The assay can be described thus: SPR 37C, steady state.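 Note: fc variants captured on chip-bound human BTLA ectodomain, recombinant FcγR ectodomains injected as analyte at varied concentrations, double-referenced equilibrium binding fitted to Langmuir model.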

The next assay has as its target T6, human FcγR3A 158V (human, UniProt P08637 17-208).
T6 construct: extracellular domain
The assay can be described thus: SPR 37C, steady state.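 Note: fc variants captured on chip-bound human BTLA ectodomain, recombinant FcγR ectodomains injected as analyte at varied concentrations, double-referenced equilibrium binding fitted to Langmuir model.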

The next assay concerns the target T7, human FcRn (human, UniProt P55899 24-297; P61769 21-119, limits assumed, biotinylated).
T7 construct: bought; also called FcRn pH6
Put plainly: SPR, pH6.0.

The Kd is the constant that tells how readily two partners part at equilibrium. A lower Kd goes with a tighter complex. Usually koff stands for the rate constant with which the complex falls apart. A higher koff goes with a short-lived complex. One may read the kon as the rate constant with which the complex forms.
Throughout, for AntiCD3/CD28 (CD4 T cell proliferation) repeat 1: test concentration or dose not given here.
Throughout, for AntiCD3/CD28 (CD4 T cell proliferation) repeat 2: test concentration or dose not given here.
Throughout, for AntiCD3/CD28 (CD69+ CD4 T cells) repeat 1: test concentration or dose not given here.
Throughout, for AntiCD3/CD28 (CD69+ CD4 T cells) repeat 2: test concentration or dose not given here.
Throughout, for MLR (CD4 T cell proliferation) repeat 1: test concentration or dose not given here.
Throughout, for MLR (CD4 T cell proliferation) repeat 2: test concentration or dose not given here.
Throughout, for T cell reporter (NFκB signaling): test concentration or dose not given here.

Chain of chimeric BTLA of humanised-BTLA mice (human extracellular region, murine transmembrane and signaling … (Q7TSA3 other isoform, or with tags, fused parts or gaps mutant limits assumed): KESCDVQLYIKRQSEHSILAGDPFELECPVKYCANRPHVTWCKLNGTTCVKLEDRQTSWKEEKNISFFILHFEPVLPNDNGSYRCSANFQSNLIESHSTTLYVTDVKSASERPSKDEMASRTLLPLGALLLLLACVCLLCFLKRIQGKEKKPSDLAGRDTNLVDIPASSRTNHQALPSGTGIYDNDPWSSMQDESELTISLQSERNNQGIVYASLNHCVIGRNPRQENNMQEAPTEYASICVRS
T6 sequence (P08637 17-208 F176V): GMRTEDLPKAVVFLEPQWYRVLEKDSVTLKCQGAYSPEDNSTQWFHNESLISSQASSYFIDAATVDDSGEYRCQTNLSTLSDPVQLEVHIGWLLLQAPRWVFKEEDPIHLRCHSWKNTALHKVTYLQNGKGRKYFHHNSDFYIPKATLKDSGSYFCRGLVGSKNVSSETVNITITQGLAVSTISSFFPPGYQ
T7 sequence (P55899 24-297 limits assumed, chain 1 of 2): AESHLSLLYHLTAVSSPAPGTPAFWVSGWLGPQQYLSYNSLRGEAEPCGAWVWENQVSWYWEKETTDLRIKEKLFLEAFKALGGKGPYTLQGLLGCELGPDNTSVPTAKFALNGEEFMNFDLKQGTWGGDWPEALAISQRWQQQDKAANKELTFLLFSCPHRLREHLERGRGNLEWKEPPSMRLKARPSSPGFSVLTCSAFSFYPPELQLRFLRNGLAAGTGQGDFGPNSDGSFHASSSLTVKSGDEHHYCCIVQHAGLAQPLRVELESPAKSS
T7 sequence (P61769 21-119 limits assumed, chain 2 of 2): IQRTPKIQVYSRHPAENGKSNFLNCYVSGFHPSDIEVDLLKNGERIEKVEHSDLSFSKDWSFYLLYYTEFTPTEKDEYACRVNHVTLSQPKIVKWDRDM
Experimental for human FcRn: For the high affinity FcR interactions (FcγR1A, and also FcRn assessed at pH6.0) the binding was assessed in a kinetic analysis with antibody as analyte. […] Reference flow cell 1 was left empty in all channels. Purified antibody was then injected at a single concentration and on/off rates calculated by curve fitting on BiaEvaluation software. […] IgG Fc has two binding sites for FcRn so this assessment performed with FcRn immobilised at high density provides an avidity estimate for the interaction rather than a true KD.

B1: Engineered humanised 6.2 (Variant A) (antibody, V domains shown)
VH: EVQLVESGGGLVKPGGSLRLSCAASGFTLSSYGMSWVRQAPGKGLEWVASIRSEGQTYYPDSVKGRFTISRDNAKNTLYLQMSSLRAEDTAVYYCTRGGYYGSSPYYWGQGTTVTVSS
VL: DIVMTQSPLSLPVTPGEPASISCKSSQSLLYSSNQKNYLAWYQQKPGQSPKLLIYWASTRESGVPDRFSGSGSGTDFTLKISRVEAEDVGVYYCQQYYNYLTFGGGTKVEIKR
In assay [1], B1 displayed a Kd of 0.695 µM, a koff of 0.0507 s⁻¹ and a kon of 72900 M⁻¹ s⁻¹. Also, in [2], the Kd came to 0.0109 µM, the koff amounted to 0.00756 s⁻¹ and the kon is 694000 M⁻¹ s⁻¹.

B2: 26B1 (antibody, IgG1, V domains shown)
VH: EVQLQQSGPVLVKPGASVKMSCKASGYTFTDYYLNWVKQSHGKSLEWIGLIDPYNGGSSCNQKFKGKATLTVDKSSSTAYMDLNSLTSEDSAVYYCARGNAMDYWGQGTSVTVSS
VL: DIVMTQSHKFMSTSVGDRVSITCKASQDVSTAVAWYQEKPGQSPKLLIYWASTRHTGVPDRFTGSGSGTDYILNISSVQAEDLALYYCQQHYIIPYMFGGGTKLEIK
notes: mIgG1
In assay [3], B2 displayed a Kd of 0.168 µM. Further, the “T cell reporter (NFκB signaling)” value in assay [4] worked out at 29 % inhibition. Further, in assay [5], the “AntiCD3/CD28 (CD4 T cell proliferation) repeat 1” value was 11 % inhibition, the “AntiCD3/CD28 (CD4 T cell proliferation) repeat 2” value was found to be 19 % inhibition, the “AntiCD3/CD28 (CD69+ CD4 T cells) repeat 1” value was determined as 35 % inhibition and the “AntiCD3/CD28 (CD69+ CD4 T cells) repeat 2” value came to 30 % inhibition. Also, in assay [5], the “MLR (CD4 T cell proliferation) repeat 1” value came to 12 % inhibition and the “MLR (CD4 T cell proliferation) repeat 2” value was 10 % inhibition.

B3: 24H7 (antibody, IgG1, V domains shown)
VH: QVQLQQSGAELVRPGASVTLSCKASGYTFTDYEIHWVKQTLVHGLEWIGPIDPDTGNTAYNQNLKGKAILTADKSSSTAYMELRSLTSEDSAVYYCTRGGYDSDWGFAYWGQGTLVTVSA
VL: DIVMTQATPSVPVTPGESVSISCRSSKSLLHSNGNTFLFWFLQRPGQSPQLLIYRMSDLASGVPDRFSGSGSGTAFTLRISRVEAEDVGIYYCMQHLEYPFTFGSGTKLEIK
notes: mIgG1
Turning to B3, in [6], the Kd came to 0.00066 µM, the koff worked out at 0.00016 s⁻¹ and the kon worked out at 243000 M⁻¹ s⁻¹. Further, the “T cell reporter (NFκB signaling)” value in assay [4] turned out to be 22 % inhibition. Besides, in assay [5], the “AntiCD3/CD28 (CD4 T cell proliferation) repeat 1” value was 13 % inhibition, the “AntiCD3/CD28 (CD4 T cell proliferation) repeat 2” value was 23 % inhibition, the “AntiCD3/CD28 (CD69+ CD4 T cells) repeat 1” value amounted to 52 % inhibition and the “AntiCD3/CD28 (CD69+ CD4 T cells) repeat 2” value came out at 44 % inhibition. Moreover, in assay [5], the “MLR (CD4 T cell proliferation) repeat 1” value came out at 23 % inhibition and the “MLR (CD4 T cell proliferation) repeat 2” value worked out at 31 % inhibition.

B4: humanised 2.8.6 hIgG1 delta ab P238D (antibody)
chain 1: QVTLKESGPALVKPTQTLTLTCTVSGFSLTTYGVHWIRQPPGKALEWLGVMWPGGRTSYNPSLKSRLTITKDNSKSQVVLTMTNMDPVDTATYYCVRGDYEYDYYAMDYWGQGTLVTVSSASTKGPSVFPLAPSSKSTSGGTAALGCLVKDYFPEPVTVSWNSGALTSGVHTFPAVLQSSGLYSLSSVVTVPSSSLGTQTYICNVNHKPSNTKVDKKVEPKSCDKTHTCPPCPAPPVAGDSVFLFPPKPKDTLMISRTPEVTCVVVDVSHEDPEVKFNWYVDGVEVHNAKTKPREEQYNSTYRVVSVLTVLHQDWLNGKEYKCKVSNKGLPSSIEKTISKAKGQPREPQVYTLPPSRDELTKNQVSLTCLVKGFYPSDIAVEWESNGQPENNYKTTPPVLDSDGSFFLYSKLTVDKSRWQQGNVFSCSVMHEALHNHYTQKSLSLSP
chain 2: EIVLTQSPATLSLSPGERATLSCRASSSVSYMHWYQQKPGQAPRPLIYATSNRATGIPARFSGSGSGTDYTLTISSLEPEDFAVYYCHQWSSNPYTFGQGTKLEIKRTVAAPSVFIFPPSDEQLKSGTASVVCLLNNFYPREAKVQWKVDNALQSGNSQESVTEQDSKDSTYSLSSTLTLSKADYEKHKVYACEVTHQGLSSPVTKSFNRGEC
Turning to B4, the Kd worked out at 771 µM with human FcγR2A 131H and 876 µM with human FcγR2B.

B5: humanised 2.8.6 hIgG1 delta ac P238D (antibody)
chain 1: QVTLKESGPALVKPTQTLTLTCTVSGFSLTTYGVHWIRQPPGKALEWLGVMWPGGRTSYNPSLKSRLTITKDNSKSQVVLTMTNMDPVDTATYYCVRGDYEYDYYAMDYWGQGTLVTVSSASTKGPSVFPLAPSSKSTSGGTAALGCLVKDYFPEPVTVSWNSGALTSGVHTFPAVLQSSGLYSLSSVVTVPSSSLGTQTYICNVNHKPSNTKVDKKVEPKSCDKTHTCPPCPAPPVAGGDSVFLFPPKPKDTLMISRTPEVTCVVVDVSHEDPEVKFNWYVDGVEVHNAKTKPREEQYNSTYRVVSVLTVLHQDWLNGKEYKCKVSNKGLPSSIEKTISKAKGQPREPQVYTLPPSRDELTKNQVSLTCLVKGFYPSDIAVEWESNGQPENNYKTTPPVLDSDGSFFLYSKLTVDKSRWQQGNVFSCSVMHEALHNHYTQKSLSLSP
chain 2: EIVLTQSPATLSLSPGERATLSCRASSSVSYMHWYQQKPGQAPRPLIYATSNRATGIPARFSGSGSGTDYTLTISSLEPEDFAVYYCHQWSSNPYTFGQGTKLEIKRTVAAPSVFIFPPSDEQLKSGTASVVCLLNNFYPREAKVQWKVDNALQSGNSQESVTEQDSKDSTYSLSSTLTLSKADYEKHKVYACEVTHQGLSSPVTKSFNRGEC
For the molecule B5, the values for the Kd with human FcγR2A 131R, in the assay with human FcγR2B and in the assay with human FcγR3A 158V were 399 µM, 1170 µM and 1410 µM, respectively. In addition, the “avidity (FcRn pH6)” value with human FcRn was found to be 14.2 nM.

B6: 15C6 (antibody, IgG1, V domains shown)
VH: QVQLQQSGPELVKPGASVKISCKASGYAFSSSWMNWVKQRPGKGLEWIGRIYPGDGDTNYNGKFKGKATLTADKSSSTAYMQLSSLTSEDSAVYFCARRGYGYLAYWGQGTLVTVSA
VL: DIVMTQSHKFMSTSVGDRVSITCKASQDVSTAVAWYQQKPGQSPKLLIYSASYRYTGVPDRFTGSGSGTDFTFTISSVQAEDLAVYYCQQHYSTPYTFGGGTKLEIK
notes: mIgG1
In assay [6], B6 yielded a Kd of 0.718 µM, a koff of 0.138 s⁻¹ and an on-rate (kon) of 193000 M⁻¹ s⁻¹. In assay [4], the “T cell reporter (NFκB signaling)” value is 9 % inhibition. In assay [5], the “AntiCD3/CD28 (CD4 T cell proliferation) repeat 1” value stood at 2 % inhibition, the “AntiCD3/CD28 (CD4 T cell proliferation) repeat 2” value is -2 % inhibition, the “AntiCD3/CD28 (CD69+ CD4 T cells) repeat 1” value came to 12 % inhibition and the “AntiCD3/CD28 (CD69+ CD4 T cells) repeat 2” value is 19 % inhibition. Further, in assay [5], the “MLR (CD4 T cell proliferation) repeat 1” value came out at 19 % inhibition and the “MLR (CD4 T cell proliferation) repeat 2” value came to 8 % inhibition.

B7: 3A9 (antibody, IgG1, V domains shown)
VH: QVQLKQSGAELVRPGASVKLSCKASGYTFTDYYINWVKQRPGQGLEWIARIYPGSGNTYYNEKFKGKATLTAEKSSSTAYMQLSSLTSEDSAVYFCARGYGNSDYWGQGTTLTVSS
VL: DILLTQSPAILSVSPGERVSFSCRASQSIGTRIHWYQQRTNGSPRLLIKYASESISGIPSRFSGSGSGTDFTLSINSVESEDIADYYCQQSNSWPYTFGGGTKLEIK
notes: mIgG1
In assay [6], B7 showed a Kd of 4.01 µM, a koff of 1.63 s⁻¹ and an on-rate (kon) of 406000 M⁻¹ s⁻¹. Besides, the “T cell reporter (NFκB signaling)” value in assay [4] is 27 % inhibition. Further, in [5], the “AntiCD3/CD28 (CD4 T cell proliferation) repeat 1” value was 9 % inhibition, the “AntiCD3/CD28 (CD4 T cell proliferation) repeat 2” value was 9 % inhibition, the “AntiCD3/CD28 (CD69+ CD4 T cells) repeat 1” value amounted to 22 % inhibition and the “AntiCD3/CD28 (CD69+ CD4 T cells) repeat 2” value came to 34 % inhibition. Further, in [5], the “MLR (CD4 T cell proliferation) repeat 1” value was 7 % inhibition and the “MLR (CD4 T cell proliferation) repeat 2” value was determined as 24 % inhibition.

B8: 12F11 (antibody, IgG1, V domains shown)
VH: EVQLQQSGPELVKPGASVKISCKASGYTFTDYYMNWVKQSHGKSLEWIGDINPNNGGTSYNQKFKGKATLTVDKSSSTAYMELRSLTSEDSAVYYCARWRQLRSDYWGQGTTLTVSS
VL: DIQMTQSPASQSASLGESVTITCLASQTIGTWLAWYQQKPGKSPQLLIYAATSLADGVPSRFSGSGSGTKFSFKISSLQAEDFVSYYCQQLYSTPLTFGAGTKLELK
notes: mIgG1
In the case of B8, in assay [6], the Kd worked out at 0.722 µM, the koff stood at 0.155 s⁻¹ and the kon turned out to be 215000 M⁻¹ s⁻¹. Further, in [4], the “T cell reporter (NFκB signaling)” value worked out at 30 % inhibition. In assay [5], the “AntiCD3/CD28 (CD4 T cell proliferation) repeat 1” value was determined as 5 % inhibition, the “AntiCD3/CD28 (CD4 T cell proliferation) repeat 2” value came to 9 % inhibition, the “AntiCD3/CD28 (CD69+ CD4 T cells) repeat 1” value was found to be 30 % inhibition and the “AntiCD3/CD28 (CD69+ CD4 T cells) repeat 2” value turned out to be 40 % inhibition. In [5], the “MLR (CD4 T cell proliferation) repeat 1” value was 28 % inhibition and the “MLR (CD4 T cell proliferation) repeat 2” value worked out at 23 % inhibition.
